What was measured:
[1] = target: Drosophila melanogaster KCC variant B (Drosophila melanogaster); experiment: SEC
[2] = target: Hydra vulgaris KCC (Hydra vulgaris); experiment: SEC
[3] = target: Hydra vulgaris KCC (Hydra vulgaris); experiment: SEC-MALLS

Substance “Drosophila melanogaster KCC variant B (natural protein)” has a stoichiometry N [1] of 2.
Substance Hydra vulgaris KCC (natural protein) has a stoichiometry N [2] of 2 and a stoichiometry N [3] of 2.
